{"source": "paper PMC6398482", "molecular_target": "Taxol-stabilised microtubules of Rhodamine-labelled tubulin (porcine) (UniProt P02550)", "test": "confocal microscopy of purified proteins; Taxol-stabilised MT seeds incubated with GFP–PLK4 (1 µM) for 15 min at 37°C, mounted on a slide; condensates associated with MTs counted (N=3, n=100 spots/condition)", "data": [{"binder": "GFP-tagged Xenopus PLK4 (wild type) (enzyme) MAGSIGERREDFKVLNLLGKGSFACVYRAQSINTGIDVAIKMIDKKAMQKVGMVQRVRNEVEIHCQLKHPSILELYNYFEDSNYVYLILEMCHNGEVNRYLKNRKKPFAEDEARHFMHQIVTGMLYLHSHGILHRDLTLSNLLLSSDMNIKIADFGLATQLKMPNEKHFTMCGTPNYIAPEIATRSAHGLESDVWSLGCMLYTFLVGRPPFDTDTVKNTLNKIVLADYEMPDFVSREAKDLIFQLLRKNPADRLSLSSVLDHAFMTGFSNVQSKVMGAVEDSMDSGHATISTGFTGSSGVSISGRFQEKRILSGPSLPNKVNIFQFKDKHPTERSNGGSFHNTQRENNDFSEGNGRKPVACEDRPHSRYLRRAHSSDRSGTSQSQTYAKPSSYSERCHSVEMLAKPTHLKGYRTSSPPNSYGDIPQMFTDERSLERHTSPPVKEKTPSEFMGPAKQTAPRSNDKAETVQQWFGAMQLNGQFKNTPDTSSVSNMGGDFYSQQATQNGAPQYAWNDVKRKKNTDSSIESVLLGIKKNPGTGQRKAEKSQFGEQSKSRVPQQAFGSSTLRSIISPLNAERLKPIRQKTKNAVVSILESGEVCMEFLKEQNSQERVKEVLRISCDGNLIYVYHPNEGKGFPLVDRPPSPPENRLSYTFDSLPEKYWKKYQYAAKFIKLVRSKTPKVTYYTRYAKCMLMENSPTADVEVCFYDGAKIHKTSDVIRVIEKSGRSYTLEGSRLSTLSDEVRSYLDHANESHCVCLSLESAINTEEKKGENISLFPITFGRRPALAESPKTQPTPSVDSARERKEEQSYVNRVLHGSAASPPQMPNLNPSLISYDGSVFSATTVQPSPTSNIHNTPDHAQVLKSVFVENVGWASQLNSGAVWVQFNDGSQLVVQPGVSSIIYTAPNGQITRHGENDKLPEYIKSKLQCLSSILMLFASSSSR", "values": [{"measurement": "percent of PLK4 condensates associated with MTs", "result": 95.4, "unit": "%"}]}]}
